Read-outs that look alike come from different tables or passages of the source. Values belong to the binder of their own block, whether it stands above or below them. *1 amine or outer side, *2 acyl side, *3 side chain or, on linkers, in order; H or OH if unused. Where no end group is shown, it is not given here. Side-chain parts run from the residue outwards. [ ]: non-standard residue; d: D form. The star is where a group is joined. C18 diacid = O=C(O)CCCCCCCCCCCCCCCCC(=O)*; C16 diacid = O=C(O)CCCCCCCCCCCCCCC(=O)*; γGlu = O=C(O)[C@H](CCC(=O)[*:2])N[*:1]; Palmitoyl = CCCCCCCCCCCCCCCC(=O)*; Decanoyl = CCCCCCCCCC(=O)*; AEEA = NCCOCCOCC(=O)O; Aib = CC(C)(N)C(=O)O
Key:
Assay in all cases: cell-based or functional assay
[1] = target: T1, human GLP-2R (glucagon-like peptide-2 receptor) (human, UniProt O95838 1-553)
T1 sequence (looked up): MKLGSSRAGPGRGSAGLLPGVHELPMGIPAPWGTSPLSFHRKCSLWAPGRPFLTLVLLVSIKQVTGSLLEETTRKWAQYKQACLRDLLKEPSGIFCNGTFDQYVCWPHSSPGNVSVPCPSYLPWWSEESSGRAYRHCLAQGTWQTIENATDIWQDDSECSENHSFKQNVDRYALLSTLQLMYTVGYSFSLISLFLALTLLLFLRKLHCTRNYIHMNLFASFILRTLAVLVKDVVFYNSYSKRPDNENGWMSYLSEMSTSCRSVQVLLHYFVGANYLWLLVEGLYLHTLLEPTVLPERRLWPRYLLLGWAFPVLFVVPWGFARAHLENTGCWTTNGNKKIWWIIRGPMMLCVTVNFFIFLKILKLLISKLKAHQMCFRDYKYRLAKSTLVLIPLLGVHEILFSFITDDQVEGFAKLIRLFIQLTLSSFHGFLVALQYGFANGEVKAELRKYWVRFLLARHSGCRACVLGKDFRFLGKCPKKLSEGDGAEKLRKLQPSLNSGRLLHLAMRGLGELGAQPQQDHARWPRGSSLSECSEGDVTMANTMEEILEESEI

[2] = target: T2, human GIPR (glucose-dependent insulinotropic polypeptide receptor) (human, UniProt P48546 22-466)
T2 sequence (looked up): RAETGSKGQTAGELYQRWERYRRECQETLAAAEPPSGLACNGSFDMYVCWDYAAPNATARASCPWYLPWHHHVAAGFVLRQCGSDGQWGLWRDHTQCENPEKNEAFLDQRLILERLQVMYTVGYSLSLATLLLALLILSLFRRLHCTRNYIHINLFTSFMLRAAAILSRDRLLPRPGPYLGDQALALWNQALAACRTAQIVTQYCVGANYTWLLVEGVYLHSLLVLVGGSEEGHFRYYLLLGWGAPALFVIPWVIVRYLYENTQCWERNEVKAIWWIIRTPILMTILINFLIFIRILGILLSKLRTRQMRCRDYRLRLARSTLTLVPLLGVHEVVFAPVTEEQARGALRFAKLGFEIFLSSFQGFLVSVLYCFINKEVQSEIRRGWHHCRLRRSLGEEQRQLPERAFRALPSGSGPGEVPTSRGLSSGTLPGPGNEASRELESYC

macaque GIPR = macaque GIPR (macaque)
[3] = target: human GLP-1R (GLP-1 receptor) (human, UniProt P43220 24-463)
[4] = target: T2, human GIPR (glucose-dependent …); remark: listed apart in the source
[5] = target: T1, human GLP-2R (glucagon-like peptide-2 …); remark: listed apart in the source
rat GIPR = target: T3, rat GIPR (rat, UniProt P43219 19-455)
T3 sequence (looked up): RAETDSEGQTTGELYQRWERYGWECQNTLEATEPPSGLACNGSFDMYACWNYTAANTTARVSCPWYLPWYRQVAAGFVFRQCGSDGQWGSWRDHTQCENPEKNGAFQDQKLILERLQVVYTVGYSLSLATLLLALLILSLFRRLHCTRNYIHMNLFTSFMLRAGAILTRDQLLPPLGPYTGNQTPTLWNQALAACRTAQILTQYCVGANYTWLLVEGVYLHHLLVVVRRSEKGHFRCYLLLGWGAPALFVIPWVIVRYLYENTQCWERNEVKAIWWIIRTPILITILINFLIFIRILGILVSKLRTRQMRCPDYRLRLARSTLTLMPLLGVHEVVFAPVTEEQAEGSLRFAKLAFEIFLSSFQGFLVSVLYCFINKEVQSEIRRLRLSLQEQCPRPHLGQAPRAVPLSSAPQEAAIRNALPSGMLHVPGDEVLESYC

macaque GLP-2R = macaque GLP-2R (macaque)

Binder: Palmitoyl-HADGTFISDYST[Aib]LDNLAARDFINWLIQTKITKNDWKHNITQ [Compound no. 53]
cAMP assay: EC50 (nM) GLP-2R [1]: 4 nM
cAMP assay: Efficacy GLP-2R [1]: 79%
cAMP assay: logEC50 GLP-2R [1]: 8.2
cAMP assay: EC50 (nM) GIPR [2]: 0.316 nM
cAMP assay: Efficacy GIPR [2]: 90%

Binder: HXDGTFISDYKTILDNLAARDFINWLIQTKITK (Aib at position 2; K(γGlu-C16) at position 11; C-terminal -OH) [Compound no. 11]
Efficacy (%) (macaque GIPR): 92.5%
pEC50 (macaque GIPR): 9

B1: Compound no. 25 (peptide)
peptide: H[Aib]DGK([γGlu-C16 diacid])FISDYST[Aib]LDNLAARDFINWLIQTKITK-OH
modifications: N-terminus assumed
SMILES: CC[C@H](C)[C@H](NC(=O)[C@H](Cc1ccccc1)NC(=O)[C@H](CCCCNC(=O)CC[C@H](NC(=O)CCCCCCCCCCCCCCC(=O)O)C(=O)O)NC(=O)CNC(=O)[C@H](CC(=O)O)NC(=O)C(C)(C)NC(=O)[C@@H](N)Cc1c[nH]cn1)C(=O)N[C@@H](CO)C(=O)N[C@@H](CC(=O)O)C(=O)N[C@@H](Cc1ccc(O)cc1)C(=O)N[C@@H](CO)C(=O)N[C@H](C(=O)NC(C)(C)C(=O)N[C@@H](CC(C)C)C(=O)N[C@@H](CC(=O)O)C(=O)N[C@@H](CC(N)=O)C(=O)N[C@@H](CC(C)C)C(=O)N[C@@H](C)C(=O)N[C@@H](C)C(=O)N[C@@H](CCCNC(=N)N)C(=O)N[C@@H](CC(=O)O)C(=O)N[C@@H](Cc1ccccc1)C(=O)N[C@H](C(=O)N[C@@H](CC(N)=O)C(=O)N[C@@H](Cc1c[nH]c2ccccc12)C(=O)N[C@@H](CC(C)C)C(=O)N[C@H](C(=O)N[C@@H](CCC(N)=O)C(=O)N[C@H](C(=O)N[C@@H](CCCCN)C(=O)N[C@H](C(=O)N[C@H](C(=O)N[C@@H](CCCCN)C(=O)O)[C@@H](C)O)[C@@H](C)CC)[C@@H](C)O)[C@@H](C)CC)[C@@H](C)CC)[C@@H](C)O
Efficacy (%) (rat GIPR): 71.7%
pEC50 (rat GIPR): 8

B2: Compound no. 5 (peptide)
peptide: Palmitoyl-H[Aib]DGTFISDYST[Aib]LDNLAARDFINWLIQTKITK-OH
SMILES: CCCCCCCCCCCCCCCC(=O)N[C@@H](Cc1c[nH]cn1)C(=O)NC(C)(C)C(=O)N[C@@H](CC(=O)O)C(=O)NCC(=O)N[C@H](C(=O)N[C@@H](Cc1ccccc1)C(=O)N[C@H](C(=O)N[C@@H](CO)C(=O)N[C@@H](CC(=O)O)C(=O)N[C@@H](Cc1ccc(O)cc1)C(=O)N[C@@H](CO)C(=O)N[C@H](C(=O)NC(C)(C)C(=O)N[C@@H](CC(C)C)C(=O)N[C@@H](CC(=O)O)C(=O)N[C@@H](CC(N)=O)C(=O)N[C@@H](CC(C)C)C(=O)N[C@@H](C)C(=O)N[C@@H](C)C(=O)N[C@@H](CCCNC(=N)N)C(=O)N[C@@H](CC(=O)O)C(=O)N[C@@H](Cc1ccccc1)C(=O)N[C@H](C(=O)N[C@@H](CC(N)=O)C(=O)N[C@@H](Cc1c[nH]c2ccccc12)C(=O)N[C@@H](CC(C)C)C(=O)N[C@H](C(=O)N[C@@H](CCC(N)=O)C(=O)N[C@H](C(=O)N[C@@H](CCCCN)C(=O)N[C@H](C(=O)N[C@H](C(=O)N[C@@H](CCCCN)C(=O)O)[C@@H](C)O)[C@@H](C)CC)[C@@H](C)O)[C@@H](C)CC)[C@@H](C)CC)[C@@H](C)O)[C@@H](C)CC)[C@@H](C)O
Efficacy (%) (macaque GLP-2R): 120%

Binder: Palmitoyl-HADGTFISDYSTILDNLAARDFINWLIETKITKNDWKHNITQ [Compound no. 51]
cAMP assay: EC50 (nM) GLP-2R [1]: 12.6 nM
cAMP assay: Efficacy GLP-2R [1]: 66%
cAMP assay: logEC50 GLP-2R [1]: 7.9
cAMP assay: EC50 (nM) GIPR [2]: 0.398 nM
cAMP assay: Efficacy GIPR [2]: 104%

Binder: Palmitoyl-HADGTFISDYSTILDNLAARDFINWLIATKITKNDWKHNITQ [Compound no. 52]
cAMP assay: EC50 (nM) GLP-2R [1]: 7.9 nM
cAMP assay: Efficacy GLP-2R [1]: 68%
cAMP assay: logEC50 GLP-2R [1]: 8.1
cAMP assay: EC50 (nM) GIPR [2]: 0.251 nM
cAMP assay: Efficacy GIPR [2]: 96%

Binder: Palmitoyl-HADGTFISDYSTILDNLAARDFIEWLIQTKITKNDWKHNITQ [Compound no. 50]
cAMP assay: EC50 (nM) GLP-2R [1]: 10 nM
cAMP assay: Efficacy GLP-2R [1]: 70%
cAMP assay: logEC50 GLP-2R [1]: 8
cAMP assay: EC50 (nM) GIPR [2]: 0.891 nM
cAMP assay: Efficacy GIPR [2]: 101%

The remaining lines, values ahead:

Efficacy (%) (macaque GIPR): 71.8%
pEC50 (macaque GIPR): 7.7
Binder: H[Aib]DGTFISDYK([γGlu-Decanoyl])T[Aib]LDNLAARDFINWLIQTKITGNDWKHNITQ-OH [Compound no. 54]

cAMP assay: Efficacy GLP-1R [3]: 84%
cAMP assay: Efficacy GIPR [4]: 99%
cAMP assay: Efficacy GLP-2R [5]: 105%
Binder: HXDGTFISDYSTILDNLAARDFINWLIQTKITK (Aib at 2; K(C10) at 33 (C-terminal residue); C-terminus -OH) [Compound no. 63]

cAMP assay: Efficacy GLP-1R [3]: 76%
cAMP assay: Efficacy GIPR [4]: 107%
cAMP assay: Efficacy GLP-2R [5]: 77%
Binder: HXDGTFISDYSTXLDNLAARDFINWLIQTKITK (Aib at 2 and 13; K(C10) at 33 (C-terminal residue); C-terminal amide (-NH2)) [Compound no. 65]

cAMP assay: Efficacy GLP-1R [3]: 85%
cAMP assay: Efficacy GIPR [4]: 86%
cAMP assay: Efficacy GLP-2R [5]: 83%
Binder: HADGTFISDYST[Aib]LDK([AEEA-AEEA-γGlu-C18 diacid])LAARDFINWLIQTKGKK [Compound no. 62]

cAMP assay: Efficacy GLP-1R [3]: 105%
cAMP assay: Efficacy GIPR [4]: 93%
cAMP assay: Efficacy GLP-2R [5]: 90%
Binder: HADGTFISDYSTILDNLAARDFINWLIQTKGKK([AEEA-AEEA-γGlu-C18 diacid]) (also: K33: γGlu-C18-diacid linker 2xAEEA-γGlu) [Compound no. 60]

cAMP assay: Efficacy GIPR [4]: 97%
Binder: HGEGSFGSDMSIALDKLAARDFVNWLLQTKITD (also: C14 fatty acid at C-terminus, attachment not given here) [Compound no. 66]

cAMP assay: Efficacy GLP-1R [3]: 85%
cAMP assay: Efficacy GLP-2R [5]: 75%
Binder: HADGTFISDYSTILDK([AEEA-AEEA-γGlu-C18 diacid])LAARDFINWLIQTKGKK [Compound no. 64]

— patent publication US20250304643A1 (BAINAN BIOTECH, published 2025)
